This passage reports Km and kcat results from publication PMC2878758.

Changes are numbered by the printed parent chain. Names and notes keep the numbering of the source.

Substrate in this data set: Nc1ncnc2c1ncn2[C@@H]1O[C@H](COP(=O)(O)OP(=O)(O)OP(=O)(O)O)[C@@H](O)[C@H]1O
The data set can be described thus: ATPase assay, free ADP versus time, initial velocities. Type of data set: biochemical, Saccharomyces cerevisiae. The note with it: 37 °C, saturating aI5β intron RNA transcript.

One may read the Km as the concentration of substrate that gives half-maximal velocity. The term kcat denotes the number of substrate molecules converted per active site and unit of time at saturation.

B1: Mss116p (Saccharomyces cerevisiae S288C) (protein)
chain: NHITWAVSRRLYNDGNRDQRNFGRNQRNNNSNRYRNSRFNSRPRTRSREDDDEVHFDKTTFSKLIHVPKEDNSKEVTLDSLLEEGVLDKEIHKAITRMEFPGLTPVQQKTIKPILSSEDHDVIARAKTGTGKTFAFLIPIFQHLINTKFDSQYMVKAVIVAPTRDLALQIEAEVKKIHDMNYGLKKYACVSLVGGTDFRAAMNKMNKLRPNIVIATPGRLIDVLEKYSNKFFRFVDYKVLDEADRLLEIGFRDDLETISGILNEKNSKSADNIKTLLFSATLDDKVQKLANNIMNKKECLFLDTVDKNEPEAHERIDQSVVISEKFANSIFAAVEHIKKQIKERDSNYKAIIFAPTVKFTSFLCSILKNEFKKDLPILEFHGKITQNKRTSLVKRFKKDESGILVCTDVGARGMDFPNVHEVLQIGVPSELANYIHRIGRTARSGKEGSSVLFICKDELPFVRELEDAKNIVIAKQEKYEPSEEIKSEVLEAVTEEPEDISDIVISLISSYRSCIKEYRFSERRILPEIASTYGVLLNDPQLKIPVSRRFLDKLGLSRSPIGKAMFEIRDYSSRDGNNKSYDYDDDSEISFRGNKNYNNRSQNRDYDDEPFRRSNNNRRSFSRSNDKNNYSSRNSNIY
Take B1: the Km is 167 ± 20 µM and the kcat was 0.496 ± 0.0603 s⁻¹.

B2: Mss116p (Saccharomyces cerevisiae S288C; S305A) (protein)
chain: B1 chain with S279A
B2: the Km came out at 162 ± 16 µM and the kcat was found to be 0.322 ± 0.142 s⁻¹.

B3: Mss116p (Saccharomyces cerevisiae S288C; T307A) (protein)
chain: B1 chain with T281A
Consider B3, for which the Km came to 180 ± 4 µM and the kcat was found to be 0.061 ± 0.0045 s⁻¹.

B4: Mss116p (Saccharomyces cerevisiae S288C; R245E) (protein)
chain: B1 chain with R219E
Turning to B4, the Michaelis constant (Km) came out at 554 ± 153 µM and the kcat is reported as 8.18 ± 0.08 ^e^, ^f.

B5: Mss116p (Saccharomyces cerevisiae S288C; Q412A) (protein)
chain: B1 chain with Q386A
Turning to B5, the Km is 177 ± 33 µM and the kcat amounted to 0.393 ± 0.0933 s⁻¹.
